Values of other authors in publication PMC2814318.

Experiments:
[1] = molecular target: CaV β2a subunit (Rattus norvegicus) (UniProt Q8VGC3)
[2] = molecular target: CaV β1b subunit (Rattus norvegicus) (UniProt P54283)
Sequence of CaV β1b subunit (Rattus norvegicus) (P54283 whole entry): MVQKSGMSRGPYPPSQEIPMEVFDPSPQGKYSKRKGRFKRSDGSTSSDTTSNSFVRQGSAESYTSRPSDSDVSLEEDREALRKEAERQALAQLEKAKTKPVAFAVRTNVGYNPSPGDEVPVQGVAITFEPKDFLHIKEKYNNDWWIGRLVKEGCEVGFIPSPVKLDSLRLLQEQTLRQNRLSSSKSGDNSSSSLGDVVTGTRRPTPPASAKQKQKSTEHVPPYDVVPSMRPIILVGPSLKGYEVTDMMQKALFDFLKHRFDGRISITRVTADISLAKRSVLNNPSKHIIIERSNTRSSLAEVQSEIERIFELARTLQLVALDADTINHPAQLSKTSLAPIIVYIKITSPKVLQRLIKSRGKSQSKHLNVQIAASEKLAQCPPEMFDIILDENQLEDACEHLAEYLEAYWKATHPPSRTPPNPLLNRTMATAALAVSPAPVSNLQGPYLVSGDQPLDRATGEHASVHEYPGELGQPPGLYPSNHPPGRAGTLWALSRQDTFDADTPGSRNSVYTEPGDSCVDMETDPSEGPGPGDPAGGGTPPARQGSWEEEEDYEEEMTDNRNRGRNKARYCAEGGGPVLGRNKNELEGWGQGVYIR

Sequence of CaMKIIδ (P15791 2-533, stated change not applied): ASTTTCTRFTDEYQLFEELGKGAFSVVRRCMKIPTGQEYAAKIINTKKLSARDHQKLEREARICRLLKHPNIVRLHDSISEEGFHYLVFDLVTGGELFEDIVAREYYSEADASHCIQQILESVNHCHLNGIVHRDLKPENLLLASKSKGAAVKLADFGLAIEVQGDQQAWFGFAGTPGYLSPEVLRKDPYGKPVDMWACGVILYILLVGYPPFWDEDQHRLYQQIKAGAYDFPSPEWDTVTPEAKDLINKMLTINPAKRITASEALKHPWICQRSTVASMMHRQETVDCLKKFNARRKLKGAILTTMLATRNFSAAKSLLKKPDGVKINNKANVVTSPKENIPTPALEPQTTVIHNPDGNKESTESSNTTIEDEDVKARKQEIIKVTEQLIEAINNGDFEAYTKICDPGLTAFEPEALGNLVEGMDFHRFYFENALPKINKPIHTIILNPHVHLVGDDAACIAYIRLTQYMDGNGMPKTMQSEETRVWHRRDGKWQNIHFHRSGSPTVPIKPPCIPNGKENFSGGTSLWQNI

Substance: CaMKIIδ (from UniProt P15791)
- Kd [1]: 100 nM
- Kd [2]: 100 nM
